B1: Keratin, type II cytoskeletal 6A (Homo sapiens), P02538 (parent)
chain: MASTSTTIRSHSSSRRGFSANSARLPGVSRSGFSSVSVSRSRGSGGLGGACGGAGFGSRSLYGLGGSKRISIGGGSCAISGGYGSRAGGSYGFGGAGSGFGFGGGAGIGFGLGGGAGLAGGFGGPGFPVCPPGGIQEVTVNQSLLTPLNLQIDPTIQRVRAEEREQIKTLNNKFASFIDKVRFLEQQNKVLETKWTLLQEQGTKTVRQNLEPLFEQYINNLRRQLDSIVGERGRLDSELRGMQDLVEDFKNKYEDEINKRTAAENEFVTLKKDVDAAYMNKVELQAKADTLTDEINFLRALYDAELSQMQTHISDTSVVLSMDNNRNLDLDSIIAEVKAQYEEIAQRSRAEAESWYQTKYEELQVTAGRHGDDLRNTKQEIAEINRMIQRLRSEIDHVKKQCANLQAAIADAEQRGEMALKDAKNKLEGLEDALQKAKQDLARLLKEYQELMNVKLALDVEIATYRKLLEGEECRLNGEGVGQVNISVVQSTVSSGYGGASGVGSGLGLGGGSSYSYGSGLGVGGGFSSSSGRAIGGGLSSVGGGSSTIKYTTTSSSSRKSYKH
B2: Aspartoacylase (Homo sapiens), P45381 (parent)
chain: MTSCHIAEEHIQKVAIFGGTHGNELTGVFLVKHWLENGAEIQRTGLEVKPFITNPRAVKKCTRYIDCDLNRIFDLENLGKKMSEDLPYEVRRAQEINHLFGPKDSEDSYDIIFDLHNTTSNMGCTLILEDSRNNFLIQMFHYIKTSLAPLPCYVYLIEHPSLKYATTRSIAKYPVGIEVGPQPQGVLRADILDQMRKMIKHALDFIHHFNEGKEFPPCAIEVYKIIEKVDYPRDENGEIAAIIHPNLQDQDWKPLHPGDPMFLTLDGKTIPLGGDCTVYPVFVNEAAYYEKKEAFAKTTKLTLNAKSIRCCLH
B3: Cyclin-dependent kinase 4 inhibitor C (Homo sapiens), P42773 (parent)
chain: MAEPWGNELASAAARGDLEQLTSLLQNNVNVNAQNGFGRTALQVMKLGNPEIARRLLLRGANPDLKDRTGFAVIHDAARAGFLDTLQTLLEFQADVNIEDNEGNLPLHLAAKEGHLRVVEFLVKHTASNVGHRNHKGDTACDLARLYGRNEVVSLMQANGAGGATNLQ
B4: Keratin, type II cytoskeletal 2 epidermal (Homo sapiens), P35908 (parent)
chain: MSCQISCKSRGRGGGGGGFRGFSSGSAVVSGGSRRSTSSFSCLSRHGGGGGGFGGGGFGSRSLVGLGGTKSISISVAGGGGGFGAAGGFGGRGGGFGGGSSFGGGSGFSGGGFGGGGFGGGRFGGFGGPGGVGGLGGPGGFGPGGYPGGIHEVSVNQSLLQPLNVKVDPEIQNVKAQEREQIKTLNNKFASFIDKVRFLEQQNQVLQTKWELLQQMNVGTRPINLEPIFQGYIDSLKRYLDGLTAERTSQNSELNNMQDLVEDYKKKYEDEINKRTAAENDFVTLKKDVDNAYMIKVELQSKVDLLNQEIEFLKVLYDAEISQIHQSVTDTNVILSMDNSRNLDLDSIIAEVKAQYEEIAQRSKEEAEALYHSKYEELQVTVGRHGDSLKEIKIEISELNRVIQRLQGEIAHVKKQCKNVQDAIADAEQRGEHALKDARNKLNDLEEALQQAKEDLARLLRDYQELMNVKLALDVEIATYRKLLEGEECRMSGDLSSNVTVSVTSSTISSNVASKAAFGGSGGRGSSSGGGYSSGSSSYGSGGRQSGSRGGSGGGGSISGGGYGSGGGSGGRYGSGGGSKGGSISGGGYGSGGGKHSSGGGSRGGSSSGGGYGSGGGGSSSVKGSSGEAFGSSVTFSFR

Variants of: B1
Conditions: with KRT15, P19012
Target sequence in this assay (P19012 whole entry): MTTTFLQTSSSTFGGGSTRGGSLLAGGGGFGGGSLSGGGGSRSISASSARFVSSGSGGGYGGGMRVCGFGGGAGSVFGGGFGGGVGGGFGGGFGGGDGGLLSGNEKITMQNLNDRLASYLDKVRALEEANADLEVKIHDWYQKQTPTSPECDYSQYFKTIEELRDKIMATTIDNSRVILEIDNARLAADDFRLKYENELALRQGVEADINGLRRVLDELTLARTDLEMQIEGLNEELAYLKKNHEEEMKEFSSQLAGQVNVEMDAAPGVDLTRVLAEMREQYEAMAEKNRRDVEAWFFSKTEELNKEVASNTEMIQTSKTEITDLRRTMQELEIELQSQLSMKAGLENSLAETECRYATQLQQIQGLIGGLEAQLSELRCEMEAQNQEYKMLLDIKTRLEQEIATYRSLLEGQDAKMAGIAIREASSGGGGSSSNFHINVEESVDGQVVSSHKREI

Row | effect of a mutation on the interaction | Variant
1 | with no effect | I462S
2 | with no effect | F174V

Variants of: B1
Conditions: with KRT40, Q6A162
Target sequence in this assay (Q6A162 whole entry): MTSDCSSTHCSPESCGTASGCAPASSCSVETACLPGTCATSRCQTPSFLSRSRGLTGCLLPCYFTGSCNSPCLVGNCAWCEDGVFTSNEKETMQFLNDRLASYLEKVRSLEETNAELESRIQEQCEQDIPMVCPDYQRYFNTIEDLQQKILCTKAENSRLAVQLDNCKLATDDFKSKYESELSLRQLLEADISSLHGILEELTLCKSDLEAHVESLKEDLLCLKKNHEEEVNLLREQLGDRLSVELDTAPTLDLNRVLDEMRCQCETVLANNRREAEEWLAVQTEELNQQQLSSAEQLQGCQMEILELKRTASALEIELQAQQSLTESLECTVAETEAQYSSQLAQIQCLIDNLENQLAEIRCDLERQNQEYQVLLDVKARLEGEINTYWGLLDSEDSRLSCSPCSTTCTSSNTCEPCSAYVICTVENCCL

Row | effect of a mutation on the interaction | Variant
3 | with no effect | I462S
4 | with no effect | F174V

Variants of: B1
Conditions: with k1h1_human KRT31, Q15323
Target sequence in this assay (Q15323 whole entry): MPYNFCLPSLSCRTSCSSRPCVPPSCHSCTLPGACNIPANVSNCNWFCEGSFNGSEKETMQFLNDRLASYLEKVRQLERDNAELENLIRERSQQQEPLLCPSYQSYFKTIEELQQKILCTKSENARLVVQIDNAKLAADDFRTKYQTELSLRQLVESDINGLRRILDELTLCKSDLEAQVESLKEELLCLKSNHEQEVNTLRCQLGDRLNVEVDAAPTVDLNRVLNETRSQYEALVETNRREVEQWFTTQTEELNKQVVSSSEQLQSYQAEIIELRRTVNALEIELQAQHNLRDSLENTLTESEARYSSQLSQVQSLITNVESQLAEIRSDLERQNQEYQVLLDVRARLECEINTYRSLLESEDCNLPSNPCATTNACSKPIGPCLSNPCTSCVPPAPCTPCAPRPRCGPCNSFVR

Row | effect of a mutation on the interaction | Variant
5 | with no effect | I462S
6 | with no effect | F174V

Variants of: B1
Conditions: with tfp11_human TFIP11, Q9UBB9
Chain of tfp11_human TFIP11, Q9UBB9 (Q9UBB9 whole entry): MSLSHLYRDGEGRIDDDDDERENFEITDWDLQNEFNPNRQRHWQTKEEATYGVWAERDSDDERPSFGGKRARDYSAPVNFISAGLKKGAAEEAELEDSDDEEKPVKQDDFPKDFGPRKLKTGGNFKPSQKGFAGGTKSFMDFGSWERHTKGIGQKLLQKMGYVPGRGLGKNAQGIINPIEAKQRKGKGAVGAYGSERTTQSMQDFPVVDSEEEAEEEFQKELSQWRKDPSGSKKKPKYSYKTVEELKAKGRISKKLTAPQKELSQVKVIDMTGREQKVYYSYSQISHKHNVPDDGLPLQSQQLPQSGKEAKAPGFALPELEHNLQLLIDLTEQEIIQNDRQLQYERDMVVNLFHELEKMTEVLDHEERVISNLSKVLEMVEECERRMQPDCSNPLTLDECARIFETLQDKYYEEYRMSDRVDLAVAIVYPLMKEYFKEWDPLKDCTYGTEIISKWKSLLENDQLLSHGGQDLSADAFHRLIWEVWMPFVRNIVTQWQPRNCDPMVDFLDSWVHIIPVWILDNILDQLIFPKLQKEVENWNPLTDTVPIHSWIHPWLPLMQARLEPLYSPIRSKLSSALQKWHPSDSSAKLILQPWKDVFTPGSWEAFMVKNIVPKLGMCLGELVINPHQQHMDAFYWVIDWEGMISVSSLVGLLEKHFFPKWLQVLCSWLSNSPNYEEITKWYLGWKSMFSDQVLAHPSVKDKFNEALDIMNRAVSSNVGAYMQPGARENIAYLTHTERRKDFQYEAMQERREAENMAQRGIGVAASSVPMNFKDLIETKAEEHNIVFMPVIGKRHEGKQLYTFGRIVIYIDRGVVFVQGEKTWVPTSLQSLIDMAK

Row | effect of a mutation on the interaction | Variant
7 | with no effect | I462S
8 | with no effect | F174V

Variants of: B1
Conditions: with KRT40, Q6A162
Remark: another data set of the same source
Target sequence in this assay (Q6A162 whole entry): as the sequence (Q6A162 whole entry) above

Row | effect of a mutation on the interaction | Variant
9 | disrupting interaction strength | I462S
10 | with no effect | N21S
11 | with no effect | F249L

Variants of: B1
Conditions: with tfp11_human TFIP11, Q9UBB9
Remark: another data set of the same source

Row | effect of a mutation on the interaction | Variant
12 | disrupting interaction strength | I462S
13 | with no effect | N21S
14 | with no effect | F249L

Variants of: B1
Conditions: with goga2_human GOLGA2, Q08379
Chain of goga2_human GOLGA2, Q08379 (Q08379 whole entry): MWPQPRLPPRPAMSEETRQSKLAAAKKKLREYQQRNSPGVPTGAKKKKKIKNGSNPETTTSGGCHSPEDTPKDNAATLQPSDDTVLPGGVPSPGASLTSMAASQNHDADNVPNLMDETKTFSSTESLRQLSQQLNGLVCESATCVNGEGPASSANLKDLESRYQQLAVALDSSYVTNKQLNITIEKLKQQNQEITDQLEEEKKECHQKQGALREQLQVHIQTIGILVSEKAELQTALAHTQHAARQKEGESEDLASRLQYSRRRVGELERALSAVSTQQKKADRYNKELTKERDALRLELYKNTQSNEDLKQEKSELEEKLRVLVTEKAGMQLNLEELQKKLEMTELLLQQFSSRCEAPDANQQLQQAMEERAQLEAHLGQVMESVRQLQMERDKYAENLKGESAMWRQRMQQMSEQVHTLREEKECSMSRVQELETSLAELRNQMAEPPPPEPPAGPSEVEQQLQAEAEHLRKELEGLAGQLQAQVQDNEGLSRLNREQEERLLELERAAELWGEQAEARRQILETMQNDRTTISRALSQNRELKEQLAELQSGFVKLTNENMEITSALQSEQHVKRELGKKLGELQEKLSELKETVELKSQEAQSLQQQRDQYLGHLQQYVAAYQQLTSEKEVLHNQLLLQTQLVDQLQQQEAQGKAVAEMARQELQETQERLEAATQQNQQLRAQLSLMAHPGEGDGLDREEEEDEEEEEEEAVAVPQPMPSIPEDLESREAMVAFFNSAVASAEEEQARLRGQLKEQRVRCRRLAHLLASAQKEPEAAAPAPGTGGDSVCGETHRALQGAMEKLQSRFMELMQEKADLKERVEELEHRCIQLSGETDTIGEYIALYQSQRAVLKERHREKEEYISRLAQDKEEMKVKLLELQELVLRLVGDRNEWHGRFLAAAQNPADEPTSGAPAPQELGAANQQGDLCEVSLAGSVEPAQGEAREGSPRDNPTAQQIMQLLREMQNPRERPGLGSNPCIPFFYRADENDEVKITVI

Row | Variant | effect of a mutation on the interaction
15 | N21S | with no effect
16 | F174V | with no effect

The remaining lines, values ahead:

Row | effect of a mutation on the interaction | Variant
17 | with no effect | I462S
18 | with no effect | F249L

Variants of: B1
Conditions: with KRT15, P19012
Remark: another data set of the same source
Target sequence in this assay (P19012 whole entry): as the sequence (P19012 whole entry) above

Row | effect of a mutation on the interaction | Variant
19 | with no effect | N21S
20 | with no effect | F249L

Variants of: B1
Conditions: with k1h1_human KRT31, Q15323
Remark: another data set of the same source
Target sequence in this assay (Q15323 whole entry): as the sequence (Q15323 whole entry) above

Row | effect of a mutation on the interaction | Variant
21 | with no effect | N21S
22 | with no effect | F249L

Variants of: B2
Conditions: with keap1_human KEAP1, Q14145
Chain of keap1_human KEAP1, Q14145 (Q14145 whole entry): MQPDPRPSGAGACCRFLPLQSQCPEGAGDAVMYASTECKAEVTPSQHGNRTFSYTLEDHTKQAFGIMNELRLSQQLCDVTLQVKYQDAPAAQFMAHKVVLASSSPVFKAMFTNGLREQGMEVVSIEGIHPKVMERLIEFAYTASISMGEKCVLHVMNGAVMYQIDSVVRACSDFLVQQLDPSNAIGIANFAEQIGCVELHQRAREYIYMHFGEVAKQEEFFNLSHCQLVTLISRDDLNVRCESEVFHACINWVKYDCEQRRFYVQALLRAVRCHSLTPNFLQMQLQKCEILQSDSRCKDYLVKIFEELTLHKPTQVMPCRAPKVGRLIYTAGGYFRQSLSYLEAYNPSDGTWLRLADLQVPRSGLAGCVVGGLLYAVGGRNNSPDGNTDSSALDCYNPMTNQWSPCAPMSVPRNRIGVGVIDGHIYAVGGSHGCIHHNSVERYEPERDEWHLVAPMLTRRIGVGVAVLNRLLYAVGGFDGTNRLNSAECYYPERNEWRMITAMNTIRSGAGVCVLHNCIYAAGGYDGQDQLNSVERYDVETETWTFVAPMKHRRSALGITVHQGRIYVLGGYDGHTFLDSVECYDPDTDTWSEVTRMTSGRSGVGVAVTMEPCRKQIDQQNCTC

Row | effect of a mutation on the interaction | Variant
23 | disrupting interaction strength | E285A
24 | with no effect | E24G
25 | with no effect | M195R

Variants of: B2
Conditions: with keap1_human KEAP1, Q14145
Remark: another data set of the same source

Row | effect of a mutation on the interaction | Variant
26 | causing an interaction | E285A
27 | causing an interaction | E24G
28 | causing an interaction | M195R

Variants of: B3
Conditions: with cdk6_human CDK6, Q00534
Chain of cdk6_human CDK6, Q00534 (Q00534 whole entry): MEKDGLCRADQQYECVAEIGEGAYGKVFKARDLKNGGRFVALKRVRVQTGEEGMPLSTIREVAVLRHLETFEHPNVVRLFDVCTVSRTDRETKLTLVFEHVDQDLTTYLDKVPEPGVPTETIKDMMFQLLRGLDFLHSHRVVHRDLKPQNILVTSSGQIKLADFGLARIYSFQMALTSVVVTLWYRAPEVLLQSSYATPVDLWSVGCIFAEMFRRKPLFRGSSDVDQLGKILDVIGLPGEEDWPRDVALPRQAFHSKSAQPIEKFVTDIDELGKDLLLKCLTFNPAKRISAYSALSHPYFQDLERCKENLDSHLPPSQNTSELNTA

Row | effect of a mutation on the interaction | Variant
29 | with no effect | V31L

Variants of: B3
Conditions: with TCF12, Q99081-3

Row | effect of a mutation on the interaction | Variant
30 | disrupting interaction strength | V31L

Variants of: B3
Conditions: with NAGK

Row | effect of a mutation on the interaction | Variant
31 | disrupting interaction strength | V31L

Variants of: B3
Conditions: with sahh2_human AHCYL1, O43865

Row | effect of a mutation on the interaction | Variant
32 | disrupting interaction strength | V31L

Variants of: B3
Conditions: with TCF4, P15884-3

Row | effect of a mutation on the interaction | Variant
33 | disrupting interaction strength | V31L

Variants of: B4
Conditions: with KRT15, P19012
Target sequence in this assay (P19012 whole entry): as the sequence (P19012 whole entry) above

Row | effect of a mutation on the interaction | Variant
34 | with no effect | I477N
35 | with no effect | N186K
36 | with no effect | L484P

Variants of: B4
Conditions: with KRT40, Q6A162
Target sequence in this assay (Q6A162 whole entry): as the sequence (Q6A162 whole entry) above

Row | effect of a mutation on the interaction | Variant
37 | disrupting interaction strength | I477N
38 | with no effect | N186K
39 | with no effect | L484P

Variants of: B4
Conditions: with k1h1_human KRT31, Q15323
Target sequence in this assay (Q15323 whole entry): as the sequence (Q15323 whole entry) above

Row | effect of a mutation on the interaction | Variant
40 | disrupting interaction strength | I477N
41 | with no effect | N186K
42 | disrupting interaction strength | L484P

Variants of: B4
Conditions: with KRT19, P08727
Chain of KRT19, P08727 (P08727 whole entry): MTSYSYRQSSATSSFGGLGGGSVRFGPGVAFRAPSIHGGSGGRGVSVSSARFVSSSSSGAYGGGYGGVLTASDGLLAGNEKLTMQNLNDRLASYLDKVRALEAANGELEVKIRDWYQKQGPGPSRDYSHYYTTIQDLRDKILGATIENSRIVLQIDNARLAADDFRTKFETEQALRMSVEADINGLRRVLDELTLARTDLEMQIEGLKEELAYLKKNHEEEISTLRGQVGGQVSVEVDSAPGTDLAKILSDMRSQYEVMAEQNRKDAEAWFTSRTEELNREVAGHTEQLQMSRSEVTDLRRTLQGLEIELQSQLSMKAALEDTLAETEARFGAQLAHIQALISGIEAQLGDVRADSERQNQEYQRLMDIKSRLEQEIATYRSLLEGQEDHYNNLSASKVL

Row | effect of a mutation on the interaction | Variant
43 | disrupting interaction strength | I477N
44 | with no effect | N186K
45 | with no effect | G219D
46 | with no effect | L484P

Variants of: B4
Conditions: with k1h1_human KRT31, Q15323
Remark: another data set of the same source
Target sequence in this assay (Q15323 whole entry): as the sequence (Q15323 whole entry) above

Row | effect of a mutation on the interaction | Variant
47 | with no effect | I477N
48 | with no effect | G219D
49 | with no effect | L484P

Variants of: B4
Conditions: with KRT15, P19012
Remark: another data set of the same source
Target sequence in this assay (P19012 whole entry): as the sequence (P19012 whole entry) above

Row | effect of a mutation on the interaction | Variant
50 | with no effect | G219D

Variants of: B4
Conditions: with KRT40, Q6A162
Remark: another data set of the same source
Target sequence in this assay (Q6A162 whole entry): as the sequence (Q6A162 whole entry) above

Row | effect of a mutation on the interaction | Variant
51 | with no effect | G219D
52 | disrupting interaction strength | L484P
